In patent US20090062514A1 one finds binding capacity (mg IgG/mg of viral particles) and CP-protein A fusion molecules per bound IgG molecule data, which are given here for 1 substance.

Values joined by “and” are separate entries in the source; they are usually repeats but may differ in a detail not shown here. Equal entries are not always repeated.

The target in this assay is human IgG (Sigma 14506) (human). Put plainly: co-precipitation of human IgG with viral particles by centrifugation; SDS-PAGE of pellets and supernatants.

In the case of “recombinant viral particles displaying protein A on their surface (TVCV coat protein-protein A fusion, domains E and D of protein A)”, the binding capacity (mg IgG/mg of viral particles) was 2. For the same substance, the CP-protein A fusion molecules per bound IgG molecule (scale: CP-protein A fusion molecules per IgG molecule) is 3 and 5.
